Experimental data published in paper PMC3228903.
Where a chain is given by its changes, count along the chain named. Names and notes keep the numbering of the source.

Columns and labels:
[1] = substrate: NCCC(=O)c1ccccc1N; test: Steady-state substrate oxidation and pH dependence, WT MAO B; assay type: biochemical, human; conditions: other: WT MAO B, pH 7.5
[2] = substrate: NCCc1ccccc1; test: as above; assay type: biochemical, human; conditions: other: WT MAO B, pH 7.5
[3] = substrate: NCc1ccccc1; test: purified protein, by the assay type; conditions: pH 7.5
[4] = substrate: NCCC(=O)c1ccccc1N; test: Steady-state substrate oxidation and pH dependence, Ile199Ala MAO B; assay type: biochemical, human; conditions: other: I199A, pH 7.5
[5] = substrate: NCCc1ccccc1; test: as above; assay type: biochemical, human; conditions: other: I199A, pH 7.5
[6] = substrate: NCCC(=O)c1ccccc1N; test: Steady-state substrate oxidation and pH dependence, Ile199Ala/Tyr326Ala MAO B; assay type: biochemical, human; conditions: other: I199A-Y326A, pH 7.5
[7] = substrate: NCCc1ccccc1; test: as above; assay type: biochemical, human; conditions: other: I199A-Y326A, pH 7.5

B1: WT MAO B (Homo sapiens) (protein)
chain: MSNKCDVVVVGGGISGMAAAKLLHDSGLNVVVLEARDRVGGRTYTLRNQKVKYVDLGGSYVGPTQNRILRLAKELGLETYKVNEVERLIHHVKGKSYPFRGPFPPVWNPITYLDHNNFWRTMDDMGREIPSDAPWKAPLAEEWDNMTMKELLDKLCWTESAKQLATLFVNLCVTAETHEVSALWFLWYVKQCGGTTRIISTTNGGQERKFVGGSGQVSERIMDLLGDRVKLERPVIYIDQTRENVLVETLNHEMYEAKYVISAIPPTLGMKIHFNPPLPMMRNQMITRVPLGSVIKCIVYYKEPFWRKKDYCGTMIIDGEEAPVAYTLDDTKPEGNYAAIMGFILAHKARKLARLTKEERLKKLCELYAKVLGSLEALEPVHYEEKNWCEEQYSGGCYTTYFPPGILTQYGRVLRQPVDRIYFAGTETATHWSGYMEGAVEAGERAAREILHAMGKIPEDEIWQSEPESVDVPAQPITTTFLERHLPSVPGLLRLIGLTTIFSATALGFLAHKRGLLVRV
With B1 the Km [1] was 27 ± 2 µM, the kcat [1] was 1.6 ± 0.0167 s⁻¹ and the kcat/Km [1] was 59200 ± 4500 M⁻¹ s⁻¹. It also gave a Km [2] of 9.4 ± 0.9 µM, a kcat [2] of 2.87 ± 0.05 s⁻¹ and a kcat/Km [2] of 300000 ± 33300 M⁻¹ s⁻¹. The Km ([3]; other: WT MAO B) was 150 ± 27 µM, the kcat ([3]; other: WT MAO B) was 5 s⁻¹ and the kcat/Km ([3]; other: WT MAO B) was 33300 M⁻¹ s⁻¹.

B2: Ile199Ala MAO B (Homo sapiens; I199A) (protein)
chain: B1 chain with I199A
For B2, the Km [4] was 94 ± 8 µM, the kcat [4] was 1.47 ± 0.0333 s⁻¹ and the kcat/Km [4] was 15600 ± 1370 M⁻¹ s⁻¹. The Km [5] was 40 ± 2 µM, the kcat [5] was 2.05 ± 0.0333 s⁻¹ and the kcat/Km [5] was 51700 ± 3330 M⁻¹ s⁻¹. The Km ([3]; other: I199A) was 2133 ± 409 µM, the kcat ([3]; other: I199A) was 3.8 s⁻¹ and the kcat/Km ([3]; other: I199A) was 1780 M⁻¹ s⁻¹.

B3: Ile199Ala/Tyr326Ala MAO B (Homo sapiens; I199A/Y326A) (protein)
chain: B1 chain with I199A, Y326A
For B3, the Km [6] was 289 ± 23 µM, the kcat [6] was 1.07 ± 0.0333 s⁻¹ and the kcat/Km [6] was 3670 ± 333 M⁻¹ s⁻¹. It also gave a Km [7] of 703 ± 58 µM, a kcat [7] of 1.83 ± 0.0333 s⁻¹ and a kcat/Km [7] of 2670 ± 167 M⁻¹ s⁻¹.
